The values below come from patent US20230391880A1 (published 2023).

What all share (assay): BLI (Octet RED96), antagonist captured on biosensor, ligand in solution
The target of one experiment is T1, human Activin A (human, UniProt A4D1W7 311-426, Activin A is a disulfide-linked homodimer of the inhibin beta A mature chain. One copy is given.).
T1 sequence: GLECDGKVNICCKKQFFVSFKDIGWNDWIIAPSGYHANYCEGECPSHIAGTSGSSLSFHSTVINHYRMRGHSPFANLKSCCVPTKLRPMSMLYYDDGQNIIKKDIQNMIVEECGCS
How it is done: (§1) Binding activities of individual bifunctional antagonists to human ligands or target proteins were measured by biolayer interferometry (BLI) using Octet RED96 (FortéBIO, Pall Corporation, USA). Binding analysis was performed by first capturing the polypeptide bifunctional antagonists to biosensors followed by two baseline steps in 1× kinetic buffer. The bifunctional antagonists-captured biosensors were then submerged in wells containing different concentrations of specific individual ligand, such as RANKL, Activin A, activin B, Activin AB, myostatin, TGF-β1, TGF-β2 or TGF-β3, for 6 min association followed by 6 min of dissociation time in 1× kinetic buffer. The bifunctional antagonists-captured sensors were also dipped in wells containing 1× kinetic buffer to allow single reference subtraction in order to compensate for the natural dissociation of captured bifunctional antagonists. The binding sensorgrams were collected using the 8-channel detection mode on the Octet RED96 biosensor. Data were acquired and analyzed using the data acquisition software v11.1 (FortéBIO, Pall Corporation, USA).

For experiment [1], the target named is T2, human RANKL (receptor activator of nuclear factor-kappa B ligand) (human, UniProt O14788 140-317, limits assumed).
T2 construct: also called OPGL
T2 sequence (looked up): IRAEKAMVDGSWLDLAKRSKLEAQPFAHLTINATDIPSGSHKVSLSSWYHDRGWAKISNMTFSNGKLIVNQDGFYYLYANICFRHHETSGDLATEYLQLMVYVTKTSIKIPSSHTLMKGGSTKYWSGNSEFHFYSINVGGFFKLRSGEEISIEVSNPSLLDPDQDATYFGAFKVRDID
The procedure:
as §1

In another experiment the target is human TGF-β1 (human, UniProt P01137 279-390). How it is done: as §1
Sequence of human TGF-β1 (P01137 279-390 limits assumed): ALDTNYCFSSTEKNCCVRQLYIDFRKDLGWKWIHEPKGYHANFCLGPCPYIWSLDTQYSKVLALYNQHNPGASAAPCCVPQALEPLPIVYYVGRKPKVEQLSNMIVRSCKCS
Another experiment deals with T3, human TGF-β3 (human, UniProt P10600 301-412).
T3 sequence (looked up): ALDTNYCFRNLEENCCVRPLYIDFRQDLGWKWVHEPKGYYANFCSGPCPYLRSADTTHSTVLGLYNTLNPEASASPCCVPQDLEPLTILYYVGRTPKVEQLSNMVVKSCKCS
How it is done:
as §1

B1: bispecific antibody A237 (bispecific antibody)
heavy: QVQLVQSGAEVKKPGASVKVSCKASGYTFTSYGLSWVRQAPGQGLEWMGWIIPYNGNTNSAQKLQGRVTMTTDTSTSTAYMELRSLRSDDTAVYFCARDRDYGVNYDAFDIWGQGTMVTVSSGGGGSGGGGSGGGGSEVQLLESGGGLVQPGGSLRLSCAASGFTFSSYAMSWVRQAPGKGLEWVSGITGSGGSTYYADSVKGRFTISRDNSKNTLYLQMNSLRAEDTAVYYCAKDPGTTVIMSWFDPWGQGTLVTVSSASTKGPSVFPLAPCSRSTSESTAALGCLVKDYFPEPVTVSWNSGALTSGVHTFPAVLQSSGLYSLSSVVTVPSSNFGTQTYTCNVDHKPSNTKVDKTVERKCCVECPPCPAPPVAGPSVFLFPPKPKDTLMISRTPEVTCVVVDVSHEDPEVQFNWYVDGVEVHNAKTKPREEQFNSTFRVVSVLTVVHQDWLNGKEYKCKVSNKGLPAPIEKTISKTKGQPREPQVYTLPPSREEMTKNQVSLTCLVKGFYPSDIAVEWESNGQPENNYKTTPPMLDSDGSFFLYSKLTVDKSRWQQGNVFSCSVMHEALHNHYTQKSLSLSPGK
light: not shown
As for B1, the results for the equilibrium dissociation constant (Kd) (with human Activin A; in experiment [1]) were roughly 0.3 nM and roughly 0.001 nM, respectively.

B2: bispecific antibody A241 (bispecific antibody, human IgG2, kappa)
heavy: QVQLVQSGAEVKKPGSSVKVSCKASGYTFSSNVISWVRQAPGQGLEWMGGVIPIVDIANYAQRFKGRVTITADESTSTTYMELSSLRSEDTAVYYCASTLGLVLDAMDYWGQGTLVTVSSGGGGSGGGGSGGGGSEVQLLESGGGLVQPGGSLRLSCAASGFTFSSYAMSWVRQAPGKGLEWVSGITGSGGSTYYADSVKGRFTISRDNSKNTLYLQMNSLRAEDTAVYYCAKDPGTTVIMSWFDPWGQGTLVTVSSASTKGPSVFPLAPCSRSTSESTAALGCLVKDYFPEPVTVSWNSGALTSGVHTFPAVLQSSGLYSLSSVVTVPSSNFGTQTYTCNVDHKPSNTKVDKTVERKCCVECPPCPAPPVAGPSVFLFPPKPKDTLMISRTPEVTCVVVDVSHEDPEVQFNWYVDGVEVHNAKTKPREEQFNSTFRVVSVLTVVHQDWLNGKEYKCKVSNKGLPAPIEKTISKTKGQPREPQVYTLPPSREEMTKNQVSLTCLVKGFYPSDIAVEWESNGQPENNYKTTPPMLDSDGSFFLYSKLTVDKSRWQQGNVFSCSVMHEALHNHYTQKSLSLSPGK
light: ETVLTQSPGTLSLSPGERATLSCRASQSLGSSYLAWYQQKPGQAPRLLIYGASSRAPGIPDRFSGSGSGTDFTLTISRLEPEDFAVYYCQQYADSPITFGQGTRLEIKGGGGSGGGGSGGGGSEIVLTQSPGTLSLSPGERATLSCRASQSVRGRYLAWYQQKPGQAPRLLIYGASSRATGIPDRFSGSGSGTDFTLTISRLEPEDFAVFYCQQYGSSPRTFGQGTKVEIKRTVAAPSVFIFPPSDEQLKSGTASVVCLLNNFYPREAKVQWKVDNALQSGNSQESVTEQDSKDSTYSLSSTLTLSKADYEKHKVYACEVTHQGLSSPVTKSFNRGEC
For the molecule B2, the Kd is roughly 0.7 nM in experiment [1], roughly 2 nM with human TGF-β1 and roughly 0.3 nM with human TGF-β3.
